Source: patent US8309072B2, “Irreversibly-inactivated pepsinogen fragments for modulating immune function” (The Zhabilov Trust, priority 2004, dated 2012)
Entries after “also recorded” stand apart in the source; their conditions may differ. Where no end group is shown, it is not given here.

Experiments:
gp96 = gp96 (Homo sapiens, UniProt P14625); assay: In vitro binding of IPF with heat shock protein gp96
Text: FIG. 9 is a graph showing binding of an IPF with heat shock protein gp96 at dilutions of IPF 1/2500, IPF 1/500 and IPF 1/100, according to one embodiment of the present invention. A number of approaches may be used to detect complexing between IPF and gp96. By way of example, one such approach may be to obtain specific antibodies against IPF and gp96 and to build a sandwich immunoassay by suitable methods known in the art to detect the presence of these protein complexes. To detect binding of gp96 to IPF, the antigen may be coated on a plate to capture proteins from the sample and then report the binding with a specific detection antibody. The secondary (or detection) antibody may be directly labeled with MSD SULFO-TAG NHS ester or a SULFO-TAG-labeled anti-species, e.g., anti-mouse if the […] antibody is raised in mouse and the […] antibody is raised in a different species than the capture or primary antibody. Antibodies specific to IPF-gp96 complexes may also be used.

human CD4 = human CD4 (Homo sapiens, UniProt P01730); assay: Biacore (SPR) binding of IPF to human CD4; conditions: in vitro
Experimental: (§1) BIACORE assays were used for binding affinity. This technology measures mass concentration of biomolecules close to a surface. The surface is made specific by attaching one of the interacting partners. Sample containing the other partner(s) flows over the surface: when molecules from the sample bind to the interactant attached to the surface, the local concentration changes and an SPR (surface plasmon resonance) response is measured. The response is directly proportional to the mass of molecules that bind to the surface. The SPR response may be expressed by resonance units (RU). One RU represents change of 0.0001 in the angle of the intensity minimum which is equivalent to a change in concentration of […].
(§2) The exact conversion factor between RU and surface concentration depends on properties of the sensor surface and the nature of the molecule responsible for the concentration change.
(§3) The assays for these bindings were conducted by The Institute for Molecular Medicine using standard protocols.
The BIACORE biosensor instrument for detecting compound ligand interaction. BIACORE may capture proteins including molecules from ctyosolic or tissue extracts on sensor surfaces and measure the binding kinetics. SPR is an optical technique that measures the refractive index change occurring at the sensor liquid-fluid interface layer. […]

[1] = Biacore (SPR) binding of IPF to human serum; conditions: in vitro
Experimental: as §1, §2, §3

[2] = stated in contrast to IPF; cited from earlier work

gp96, sequence (P14625 22-803): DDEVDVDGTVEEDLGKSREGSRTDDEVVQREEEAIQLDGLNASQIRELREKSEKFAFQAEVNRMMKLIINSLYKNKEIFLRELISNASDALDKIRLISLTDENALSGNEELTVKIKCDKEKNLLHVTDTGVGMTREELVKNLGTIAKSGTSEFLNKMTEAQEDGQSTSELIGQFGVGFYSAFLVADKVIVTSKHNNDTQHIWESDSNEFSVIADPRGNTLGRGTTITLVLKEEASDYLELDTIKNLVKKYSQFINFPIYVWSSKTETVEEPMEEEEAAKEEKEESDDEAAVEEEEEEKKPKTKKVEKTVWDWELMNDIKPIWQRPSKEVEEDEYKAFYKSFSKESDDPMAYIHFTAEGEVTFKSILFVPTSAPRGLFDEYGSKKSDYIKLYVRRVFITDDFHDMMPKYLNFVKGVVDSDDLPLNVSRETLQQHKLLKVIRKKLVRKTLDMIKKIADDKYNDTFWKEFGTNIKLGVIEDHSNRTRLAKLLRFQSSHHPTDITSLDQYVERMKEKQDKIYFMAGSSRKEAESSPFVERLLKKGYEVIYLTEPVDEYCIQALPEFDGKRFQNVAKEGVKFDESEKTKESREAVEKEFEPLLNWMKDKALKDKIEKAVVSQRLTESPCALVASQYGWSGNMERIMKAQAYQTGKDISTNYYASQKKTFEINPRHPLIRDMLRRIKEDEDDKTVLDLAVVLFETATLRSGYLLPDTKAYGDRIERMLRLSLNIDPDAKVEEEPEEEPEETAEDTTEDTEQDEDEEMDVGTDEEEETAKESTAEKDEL

| Substance | in vitro binding affinity for gp96 (gp96) | other results |
| --- | --- | --- |
| IPF-1: peptide of SEQ ID NO 1, TLTSGGGAIALPPSMAAPPLGPVAPLTGAIHAPTXG, fragment of approximately 45 kDa from porcine pepsinogen (not fully specified; X: residue not identified in the source; listed as Sus scrofa) | significant in vitro binding affinity |  |
| IPF-2: peptide of SEQ ID NO 2, TLSTATGGAIPPVAAMPPGLVAPTHGPAIHP, from porcine pepsinogen (listed as Sus scrofa) | significant in vitro binding affinity |  |
| IPF-3: peptide of SEQ ID NO 3, NXVPVSVEGYXQITLDSITX, fragment of approximately 13.5 kDa from porcine pepsinogen (not fully specified; X: residue not identified in the source; listed as Sus scrofa) | significant in vitro binding affinity |  |
| IPF-4: peptide of SEQ ID NO 4, MTLTTGSGAIAPAMPPGLPPHTGAIHAPM, from porcine pepsinogen (listed as Sus scrofa) | significant in vitro binding affinity |  |
| IPF-5: peptide of SEQ ID NO 5, CCATSGPCGAVMILTPHLTA, from porcine pepsinogen (listed as Sus scrofa) | significant in vitro binding affinity |  |
| IPF-6: antiviral peptide characterized by SEQ ID NO 6, GDEPLENYLDTEYF, isolated from 45 kDa band of porcine pepsinogen preparation (listed as Sus scrofa) |  | binding with human CD4+ cells (human CD4): significant in vitro binding affinity; also recorded: demonstrates binding in vitro; binding with human serum [1]: demonstrates binding in vitro |
| Pepsin: porcine pepsin A, the starting material, compared for pI |  | pI [2]: low |
